From paper PMC10855902 (International Journal of Molecular Sciences, 2024)

B1: EGF fragment 34–47 (VVGYIGERCQYRDL) (peptide)
peptide: VVGYIGERCQYRDL
notes: EGF, human, residues 34-47; numbers count on: the mature protein; source: synthetic peptide (SPPS, Fmoc; crude, without preparative HPLC)
B2: EGF fragment 10–15 (HDGYCL) (peptide)
peptide: HDGYCL
notes: EGF, human, residues 10-15; numbers count on: the mature protein; also called 10–15 EGF fragment; source: synthetic peptide (SPPS, Fmoc; crude, without preparative HPLC)
B3: EGF fragment 10–22 (HDGYCLHDGVCMY) (peptide)
peptide: HDGYCLHDGVCMY
notes: EGF, human, residues 10-22; numbers count on: the mature protein; source: synthetic peptide (SPPS, Fmoc; crude, without preparative HPLC)
B4: EGF fragment 38–43 (IGERCQ) (peptide)
peptide: IGERCQ
notes: EGF, human, residues 38-43; numbers count on: the mature protein; source: synthetic peptide (SPPS, Fmoc; crude, without preparative HPLC)

What was measured:
Details in all cases: both partners purified
[1] = biological target: T1, Recombinant human EGFR protein (Active) (ab155639) (human, UniProt P00533 25-645, labelled with RED-tris-NTA 2nd Generation dye); assay: MST; RED-tris-NTA-labelled EGFR 25 nM, ligand in a 16-step 1:1 dilution series in PBS-T, 30 min at room temperature; assay concentration of the ligand 50 μM
T1 construct: epidermal growth factor receptor (EGFR, ErbB-1), human, recombinant; also called EGF receptor; ErbB-1; source: bought: Abcam (ab155639), recombinant

[2] = biological target: T1, Recombinant human EGFR protein (Active) …; assay: MST; RED-tris-NTA-labelled EGFR 25 nM, ligand in a 16-step 1:1 dilution series in PBS-T, 30 min at room temperature; assay concentration of the ligand 141 μM
[3] = biological target: T1, Recombinant human EGFR protein (Active) …; assay: MST; RED-tris-NTA-labelled EGFR 25 nM, ligand in a 16-step 1:1 dilution series in PBS-T, 30 min at room temperature; assay concentration of the ligand 1 mM
[4] = biological target: T1, Recombinant human EGFR protein (Active) …; assay: MST; RED-tris-NTA-labelled EGFR 25 nM, ligand in a 16-step 1:1 dilution series in PBS-T, 30 min at room temperature; assay concentration of the ligand 705 μM
[5] = biological target: T1, Recombinant human EGFR protein (Active) …; assay: MST; RED-tris-NTA-labelled EGFR 25 nM, ligand in a 16-step 1:1 dilution series in PBS-T, 30 min at room temperature; assay concentration of the ligand 350 μM
[6] = biological target: T1, Recombinant human EGFR protein (Active) …; assay: MST; RED-tris-NTA-labelled EGFR 25 nM, ligand in a 16-step 1:1 dilution series in PBS-T, 30 min at room temperature; assay concentration of the ligand 250 μM
[7] = biological target: T1, Recombinant human EGFR protein (Active) …; assay: MST; RED-tris-NTA-labelled EGFR 25 nM, ligand in a 16-step 1:1 dilution series in PBS-T, 30 min at room temperature; assay concentration of the ligand 10 mM
[8] = biological target: T1, Recombinant human EGFR protein (Active) …; assay: MST; RED-tris-NTA-labelled EGFR 25 nM, ligand in a 16-step 1:1 dilution series in PBS-T, 30 min at room temperature; assay concentration of the ligand 100 μM
[9] = biological target: T1, Recombinant human EGFR protein (Active) …; assay: MST; RED-tris-NTA-labelled EGFR 25 nM, ligand in a 16-step 1:1 dilution series in PBS-T, 30 min at room temperature; assay concentration of the ligand 6.02 mM
[10] = biological target: T1, Recombinant human EGFR protein (Active) …; assay: MST; RED-tris-NTA-labelled EGFR 25 nM, ligand in a 16-step 1:1 dilution series in PBS-T, 30 min at room temperature; assay concentration of the ligand 2.5 mM
[11] = biological target: T1, Recombinant human EGFR protein (Active) …; assay: MST; RED-tris-NTA-labelled EGFR 25 nM, ligand in a 16-step 1:1 dilution series in PBS-T, 30 min at room temperature; assay concentration of the ligand 5 mM
[12] = biological target: T1, Recombinant human EGFR protein (Active) …; assay: MST; RED-tris-NTA-labelled EGFR 25 nM, ligand in a 16-step 1:1 dilution series in PBS-T, 30 min at room temperature; assay concentration of the ligand 463 μM
[13] = biological target: T1, Recombinant human EGFR protein (Active) …; assay: MST; RED-tris-NTA-labelled EGFR 25 nM, ligand in a 16-step 1:1 dilution series in PBS-T, 30 min at room temperature; assay concentration of the ligand 3 mM
[14] = biological target: T1, Recombinant human EGFR protein (Active) …; assay: MST; RED-tris-NTA-labelled EGFR 25 nM, ligand in a 16-step 1:1 dilution series in PBS-T, 30 min at room temperature; assay concentration of the ligand 10 μM
[15] = biological target: T1, Recombinant human EGFR protein (Active) …; assay: MST; RED-tris-NTA-labelled EGFR 25 nM, ligand in a 16-step 1:1 dilution series in PBS-T, 30 min at room temperature; assay concentration of the ligand 500 μM
[16] = biological target: T1, Recombinant human EGFR protein (Active) …; assay: MST; RED-tris-NTA-labelled EGFR 25 nM, ligand in a dilution series in PBS-T; assay concentration of the ligand not stated for the values printed in running text

Binder | Kd [1] [µM] | Kd [3] [µM] | Kd [8] [µM] | Kd [10] [µM] | Kd [11] [µM] | other results
B1 | 5.92 | 0.53 | – | – | – | Kd [2]: 4.62 µM; Kd [4]: 2.17 µM; Kd [5]: 1.21 µM
B2 | 0.0664 | – | 0.0174 | 431 | 663 | Kd [6]: 48.4 µM; Kd [7]: 533 µM; Kd [9]: 715 µM
B3 | 0.0705 | 35.9 | 8.2 | – | – | Kd [12]: 21.2 µM; Kd [13]: 416 µM
B4 | – | – | – | 0.108 | 0.157 | Kd [14]: 0.709 µM; Kd [15]: 0.154 µM; Kd [16]: 0.1 to 1.8 µM
